Test results from US20210040155A1 (RHYTHM PHARMACEUTICALS, published 2021).
Bridge positions count the residues as written; N and C are the ends. Square brackets hold non-standard residues; d marks the D form. dPhe(4-F) = N[C@H](Cc1ccc(F)cc1)C(=O)O; Pen = CC(C)(S)[C@H](N)C(=O)O; hCys = N[C@@H](CCS)C(=O)O

B1: Ac-Arg-cyclo[Cys-D-Ala-Asn-D-Phe-Arg-Trp-Cys]-NH2 (peptide)
peptide: Ac-RC[dA]N[dF]RWC-NH2
modifications: disulfide 2-8
SMILES: CC(=O)N[C@@H](CCCNC(=N)N)C(=O)N[C@H]1CSSC[C@@H](C(N)=O)NC(=O)[C@H](Cc2c[nH]c3ccccc23)NC(=O)[C@H](CCCNC(=N)N)NC(=O)[C@@H](Cc2ccccc2)NC(=O)[C@H](CC(N)=O)NC(=O)[C@@H](C)NC1=O
B2: Ac-Arg-cyclo[hCys-D-Ala-D-Phe-Arg-Trp-Cys]-NH2 (peptide)
peptide: Ac-R[hCys][dA][dF]RWC-NH2
modifications: disulfide 2-7
SMILES: CC(=O)N[C@@H](CCCNC(=N)N)C(=O)N[C@H]1CCSSC[C@@H](C(N)=O)NC(=O)[C@H](Cc2c[nH]c3ccccc23)NC(=O)[C@H](CCCNC(=N)N)NC(=O)[C@@H](Cc2ccccc2)NC(=O)[C@@H](C)NC1=O
B3: Ac-Arg-cyclo[Cys-D-Ala-Arg-D-Phe-Arg-Trp-Cys]-NH2 (peptide)
peptide: Ac-RC[dA]R[dF]RWC-NH2
modifications: disulfide 2-8
SMILES: CC(=O)N[C@@H](CCCNC(=N)N)C(=O)N[C@H]1CSSC[C@@H](C(N)=O)NC(=O)[C@H](Cc2c[nH]c3ccccc23)NC(=O)[C@H](CCCNC(=N)N)NC(=O)[C@@H](Cc2ccccc2)NC(=O)[C@H](CCCNC(=N)N)NC(=O)[C@@H](C)NC1=O
B4: Ac-Arg-cyclo[Cys-D-Ala-Gln-D-Phe-Arg-Trp-Cys]-NH2 (peptide)
peptide: Ac-RC[dA]Q[dF]RWC-NH2
modifications: disulfide 2-8
SMILES: CC(=O)N[C@@H](CCCNC(=N)N)C(=O)N[C@H]1CSSC[C@@H](C(N)=O)NC(=O)[C@H](Cc2c[nH]c3ccccc23)NC(=O)[C@H](CCCNC(=N)N)NC(=O)[C@@H](Cc2ccccc2)NC(=O)[C@H](CCC(N)=O)NC(=O)[C@@H](C)NC1=O
B5: Ac-Arg-cyclo[Cys-D-Ala-Pro-D-Phe(p-F)-Arg-Trp-Cys]-NH2 (peptide)
peptide: Ac-RC[dA]P[dPhe(4-F)]RWC-NH2
modifications: disulfide 2-8
SMILES: CC(=O)N[C@@H](CCCNC(=N)N)C(=O)N[C@H]1CSSC[C@@H](C(N)=O)NC(=O)[C@H](Cc2c[nH]c3ccccc23)NC(=O)[C@H](CCCNC(=N)N)NC(=O)[C@@H](Cc2ccc(F)cc2)NC(=O)[C@@H]2CCCN2C(=O)[C@@H](C)NC1=O
B6: Ac-Arg-cyclo[hCys-D-Ala-D-Phe-Arg-Trp-Pen]-NH2 (peptide)
peptide: Ac-R[hCys][dA][dF]RW[Pen]-NH2
modifications: disulfide 2-7
SMILES: CC(=O)N[C@@H](CCCNC(=N)N)C(=O)N[C@H]1CCSSC(C)(C)[C@@H](C(N)=O)NC(=O)[C@H](Cc2c[nH]c3ccccc23)NC(=O)[C@H](CCCNC(=N)N)NC(=O)[C@@H](Cc2ccccc2)NC(=O)[C@@H](C)NC1=O
B7: Ac-Arg-cyclo[Cys-D-Ala-Trp-D-Phe-Arg-Trp-Cys]-NH2 (peptide)
peptide: Ac-RC[dA]W[dF]RWC-NH2
modifications: disulfide 2-8
SMILES: CC(=O)N[C@@H](CCCNC(=N)N)C(=O)N[C@H]1CSSC[C@@H](C(N)=O)NC(=O)[C@H](Cc2c[nH]c3ccccc23)NC(=O)[C@H](CCCNC(=N)N)NC(=O)[C@@H](Cc2ccccc2)NC(=O)[C@H](Cc2c[nH]c3ccccc23)NC(=O)[C@@H](C)NC1=O
B8: Ac-Arg-cyclo[Cys-D-Ala-Tyr-D-Phe-Arg-Trp-Cys]-NH2 (peptide)
peptide: Ac-RC[dA]Y[dF]RWC-NH2
modifications: disulfide 2-8
SMILES: CC(=O)N[C@@H](CCCNC(=N)N)C(=O)N[C@H]1CSSC[C@@H](C(N)=O)NC(=O)[C@H](Cc2c[nH]c3ccccc23)NC(=O)[C@H](CCCNC(=N)N)NC(=O)[C@@H](Cc2ccccc2)NC(=O)[C@H](Cc2ccc(O)cc2)NC(=O)[C@@H](C)NC1=O
B9: Ac-Arg-cyclo[hCys-Ala-D-Phe-Arg-Trp-Cys]-NH2 (peptide)
peptide: Ac-R[hCys]A[dF]RWC-NH2
modifications: disulfide 2-7
SMILES: CC(=O)N[C@@H](CCCNC(=N)N)C(=O)N[C@H]1CCSSC[C@@H](C(N)=O)NC(=O)[C@H](Cc2c[nH]c3ccccc23)NC(=O)[C@H](CCCNC(=N)N)NC(=O)[C@@H](Cc2ccccc2)NC(=O)[C@H](C)NC1=O
B10: Ac-Glu-cyclo[Cys-Ala-His-D-Phe-Arg-Trp-Cys]-NH2 (peptide)
peptide: Ac-ECAH[dF]RWC-NH2
modifications: disulfide 2-8
SMILES: CC(=O)N[C@@H](CCC(=O)O)C(=O)N[C@H]1CSSC[C@@H](C(N)=O)NC(=O)[C@H](Cc2c[nH]c3ccccc23)NC(=O)[C@H](CCCNC(=N)N)NC(=O)[C@@H](Cc2ccccc2)NC(=O)[C@H](Cc2c[nH]cn2)NC(=O)[C@H](C)NC1=O
B11: Ac-Arg-cyclo[Cys-D-Ala-Pro-D-Phe-Arg-Trp-Cys]-NH2 (peptide)
peptide: Ac-RC[dA]P[dF]RWC-NH2
modifications: disulfide 2-8
SMILES: CC(=O)N[C@@H](CCCNC(=N)N)C(=O)N[C@H]1CSSC[C@@H](C(N)=O)NC(=O)[C@H](Cc2c[nH]c3ccccc23)NC(=O)[C@H](CCCNC(=N)N)NC(=O)[C@@H](Cc2ccccc2)NC(=O)[C@@H]2CCCN2C(=O)[C@@H](C)NC1=O

molecular target: melanocortin-1 receptor (human, UniProt Q01726 1-317); assay: cell-based or functional assay
Sequence (Q01726 whole entry): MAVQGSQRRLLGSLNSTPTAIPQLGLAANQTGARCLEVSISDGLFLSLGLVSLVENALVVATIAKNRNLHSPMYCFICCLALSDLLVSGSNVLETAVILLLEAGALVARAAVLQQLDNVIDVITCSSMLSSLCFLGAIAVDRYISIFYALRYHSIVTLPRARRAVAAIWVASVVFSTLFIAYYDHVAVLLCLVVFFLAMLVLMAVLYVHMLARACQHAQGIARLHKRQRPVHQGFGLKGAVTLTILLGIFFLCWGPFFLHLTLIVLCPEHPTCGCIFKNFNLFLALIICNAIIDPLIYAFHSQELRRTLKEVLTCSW

Row | Ratios of EC50 values MC 1/4 (MC1R against MC4R) | cAMP Assay (EC-50) | Binder
1 | 90 ratio | 248 nM | B1
2 | 120 ratio | 888 nM | B2
3 | 2.31 ratio | 6.2 nM | B3
4 | 0.69 ratio | 0.69 nM | Ac-RC[dI]H[dF]RWC-NH2 (disulfide 2-8) [Ac-Arg-cyclo[Cys-D-Ile-His-D-Phe-Arg-Trp-Cys]-NH2]
5 | 40 ratio | 71 nM | B4
6 | 0.68 ratio | 0.47 nM | Ac-RC[dL]H[dF]RWC-NH2 (disulfide 2-8) [Ac-Arg-cyclo[Cys-D-Leu-His-D-Phe-Arg-Trp-Cys]-NH2]
7 | 7 ratio | 169 nM | B5
8 | 0.93 ratio | 1.25 nM | Ac-RC[dV]H[dF]RWC-NH2 (disulfide 2-8) [Ac-Arg-cyclo[Cys-D-Val-His-D-Phe-Arg-Trp-Cys]-NH2]
9 | 15 ratio | 195 nM | B6
10 | 8 ratio | 273 nM | B7
11 | 6.67 ratio | 301 nM | B8
12 | 15 ratio | 4 nM | B9
13 | > 3 ratio | 1.7 nM | B10
14 | 5 ratio | 280 nM | B11

molecular target: melanocortin-3 receptor (human, UniProt P41968 1-323); assay: cell-based or functional assay
Sequence (P41968 whole entry): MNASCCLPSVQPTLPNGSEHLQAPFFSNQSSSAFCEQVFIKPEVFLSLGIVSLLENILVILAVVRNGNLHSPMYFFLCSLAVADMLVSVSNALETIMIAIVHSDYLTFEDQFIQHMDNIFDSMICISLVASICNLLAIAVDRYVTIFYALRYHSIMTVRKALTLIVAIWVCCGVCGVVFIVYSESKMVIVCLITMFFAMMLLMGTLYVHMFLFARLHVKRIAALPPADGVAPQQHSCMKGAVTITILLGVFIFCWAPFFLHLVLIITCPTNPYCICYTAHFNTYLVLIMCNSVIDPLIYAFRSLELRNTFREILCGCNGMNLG

Row | Ratios of EC50 values MC 3/4 (MC3R against MC4R) | cAMP Assay (EC-50) | Binder
15 | 30 ratio | 81 nM | B1
16 | 420 ratio | 3160 nM | B2
17 | 1.45 ratio | 3.9 nM | B3
18 | 0.96 ratio | 0.96 nM | Ac-RC[dI]H[dF]RWC-NH2 (disulfide 2-8) [Ac-Arg-cyclo[Cys-D-Ile-His-D-Phe-Arg-Trp-Cys]-NH2]
19 | 5 ratio | 8.6 nM | B4
20 | 1.13 ratio | 0.79 nM | Ac-RC[dL]H[dF]RWC-NH2 (disulfide 2-8) [Ac-Arg-cyclo[Cys-D-Leu-His-D-Phe-Arg-Trp-Cys]-NH2]
21 | > 400 ratio | > 10000 nM | B5
22 | 1.19 ratio | 1.59 nM | Ac-RC[dV]H[dF]RWC-NH2 (disulfide 2-8) [Ac-Arg-cyclo[Cys-D-Val-His-D-Phe-Arg-Trp-Cys]-NH2]
23 | 17 ratio | 233 nM | B6
24 | > 290 ratio | > 10000 nM | B7
25 | > 22.2 ratio | > 1000 nM | B8
26 | 3.8 ratio | 1 nM | B9
27 | > 20 ratio | 9.9 nM | B10
28 | > 200 ratio | > 10000 nM | B11

molecular target: melanocortin-4 receptor (human, UniProt P32245 1-332); assay: cell-based or functional assay
Sequence (P32245 whole entry): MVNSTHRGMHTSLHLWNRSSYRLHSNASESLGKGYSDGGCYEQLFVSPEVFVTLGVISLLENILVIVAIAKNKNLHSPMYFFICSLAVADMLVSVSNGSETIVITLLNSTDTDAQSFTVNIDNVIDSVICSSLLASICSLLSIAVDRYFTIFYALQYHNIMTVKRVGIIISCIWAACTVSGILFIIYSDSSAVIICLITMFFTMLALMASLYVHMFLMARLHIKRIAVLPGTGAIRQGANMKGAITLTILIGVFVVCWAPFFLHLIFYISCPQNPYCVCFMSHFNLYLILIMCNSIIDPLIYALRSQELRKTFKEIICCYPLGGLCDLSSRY

Row | cAMP Assay (EC-50) | Binder
29 | 3 nM | B1
30 | 7.5 nM | B2
31 | 2.7 nM | B3
32 | 1 nM | Ac-RC[dI]H[dF]RWC-NH2 (disulfide 2-8) [Ac-Arg-cyclo[Cys-D-Ile-His-D-Phe-Arg-Trp-Cys]-NH2]
33 | 1.6 nM | B4
34 | 0.7 nM | Ac-RC[dL]H[dF]RWC-NH2 (disulfide 2-8) [Ac-Arg-cyclo[Cys-D-Leu-His-D-Phe-Arg-Trp-Cys]-NH2]
35 | 24 nM | B5
36 | 1.34 nM | Ac-RC[dV]H[dF]RWC-NH2 (disulfide 2-8) [Ac-Arg-cyclo[Cys-D-Val-His-D-Phe-Arg-Trp-Cys]-NH2]
37 | 13.7 nM | B6
38 | 34 nM | B7
39 | 45.1 nM | B8
40 | 0.26 nM | B9
41 | < 0.5 nM | B10
42 | 56 nM | B11

molecular target: melanocortin-5 receptor (human, UniProt P33032 1-325); assay: cell-based or functional assay
Sequence (P33032 whole entry): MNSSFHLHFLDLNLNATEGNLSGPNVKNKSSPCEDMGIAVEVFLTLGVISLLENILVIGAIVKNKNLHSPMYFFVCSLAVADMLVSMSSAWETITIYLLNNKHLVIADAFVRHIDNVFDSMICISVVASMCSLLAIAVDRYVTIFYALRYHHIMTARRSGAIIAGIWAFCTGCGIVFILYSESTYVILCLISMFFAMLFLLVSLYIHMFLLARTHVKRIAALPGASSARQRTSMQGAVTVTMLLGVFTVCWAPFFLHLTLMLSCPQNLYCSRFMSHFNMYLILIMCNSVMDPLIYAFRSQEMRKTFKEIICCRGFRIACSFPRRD

Row | Ratios of EC50 values MC 5/4 (MC5R against MC4R) | cAMP Assay (EC-50) | Binder
43 | 530 ratio | 1490 nM | B1
44 | > 1340 ratio | > 10000 nM | B2
45 | 420 ratio | 420 nM | Ac-RC[dI]H[dF]RWC-NH2 (disulfide 2-8) [Ac-Arg-cyclo[Cys-D-Ile-His-D-Phe-Arg-Trp-Cys]-NH2]
46 | 155 ratio | 255 nM | B4
47 | 130 ratio | 91 nM | Ac-RC[dL]H[dF]RWC-NH2 (disulfide 2-8) [Ac-Arg-cyclo[Cys-D-Leu-His-D-Phe-Arg-Trp-Cys]-NH2]
48 | 12 ratio | 283 nM | B5
49 | 584 ratio | 782 nM | Ac-RC[dV]H[dF]RWC-NH2 (disulfide 2-8) [Ac-Arg-cyclo[Cys-D-Val-His-D-Phe-Arg-Trp-Cys]-NH2]
50 | 159 ratio | 2180 nM | B6
51 | 7 ratio | 259 nM | B7
52 | 161 ratio | 42 nM | B9
53 | > 2560 ratio | 1280 nM | B10
54 | 13 ratio | 707 nM | B11
